Measurements from publication PMC4753422.

Molecular target: papain (UniProt P00784)
Assay: enzyme inhibition kinetics (papain proteolysis progress curves); anti-papain activity from papain proteolysis progress curves with the fluorigenic substrate Z-Phe-Arg-methylcoumarin; apparent (said of the Cysta-tag's constant)

Chain of UniProt P00784 (P00784 134-345): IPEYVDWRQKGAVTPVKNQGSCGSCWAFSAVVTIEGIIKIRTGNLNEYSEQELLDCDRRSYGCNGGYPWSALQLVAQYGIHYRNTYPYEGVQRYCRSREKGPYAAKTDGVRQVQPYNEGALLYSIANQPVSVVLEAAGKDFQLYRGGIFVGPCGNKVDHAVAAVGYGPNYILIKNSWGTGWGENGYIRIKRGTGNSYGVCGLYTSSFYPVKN

Cysta-tag (Ala-62-(His)6-Gly-63 variant of SlCYS8) (domain or fragment)
Kd: 42 nM

tomato multicystatin domain SlCYS8 (domain or fragment)
Kd: 43 nM
